# T1: Cyno B7-H3-ECD (his tag) (cynomolgus)
# T1 construct: SPR analyte; also called soluble ECD of cyno B7-H3
# T1 chain: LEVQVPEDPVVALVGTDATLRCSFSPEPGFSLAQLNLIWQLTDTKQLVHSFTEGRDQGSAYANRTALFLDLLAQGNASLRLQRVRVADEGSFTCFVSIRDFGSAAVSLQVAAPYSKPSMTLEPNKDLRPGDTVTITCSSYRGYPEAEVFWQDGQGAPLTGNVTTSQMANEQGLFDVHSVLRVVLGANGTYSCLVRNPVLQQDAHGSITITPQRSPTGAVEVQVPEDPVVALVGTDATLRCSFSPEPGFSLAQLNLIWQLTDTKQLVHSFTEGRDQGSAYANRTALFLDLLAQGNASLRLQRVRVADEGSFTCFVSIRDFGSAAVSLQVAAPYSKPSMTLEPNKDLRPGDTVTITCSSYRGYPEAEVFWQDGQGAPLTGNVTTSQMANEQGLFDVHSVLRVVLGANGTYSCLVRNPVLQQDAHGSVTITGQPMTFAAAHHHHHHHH
# T2: Human B7-H3-ECD (His tag) (human, UniProt Q5ZPR3 29-461)
# T2 construct: SPR analyte; also called huB7-H3; soluble ECD of human B7-H3
# T2 sequence: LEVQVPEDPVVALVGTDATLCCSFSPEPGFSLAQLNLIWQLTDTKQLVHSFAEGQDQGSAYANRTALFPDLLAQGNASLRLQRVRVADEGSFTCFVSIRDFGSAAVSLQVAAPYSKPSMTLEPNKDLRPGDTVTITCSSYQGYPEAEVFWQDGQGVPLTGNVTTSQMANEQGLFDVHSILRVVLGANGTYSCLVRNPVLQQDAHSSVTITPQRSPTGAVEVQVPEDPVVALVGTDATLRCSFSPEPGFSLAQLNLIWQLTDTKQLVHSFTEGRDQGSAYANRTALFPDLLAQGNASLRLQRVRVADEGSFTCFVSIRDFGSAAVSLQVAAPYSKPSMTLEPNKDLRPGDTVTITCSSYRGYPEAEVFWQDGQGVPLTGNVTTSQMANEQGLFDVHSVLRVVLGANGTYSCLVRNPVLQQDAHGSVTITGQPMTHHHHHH
# T3: Mouse B7-H3 on cells (mouse, UniProt Q8VE98 29-316)
# T3 construct: whole, on cells
# T3 sequence (looked up): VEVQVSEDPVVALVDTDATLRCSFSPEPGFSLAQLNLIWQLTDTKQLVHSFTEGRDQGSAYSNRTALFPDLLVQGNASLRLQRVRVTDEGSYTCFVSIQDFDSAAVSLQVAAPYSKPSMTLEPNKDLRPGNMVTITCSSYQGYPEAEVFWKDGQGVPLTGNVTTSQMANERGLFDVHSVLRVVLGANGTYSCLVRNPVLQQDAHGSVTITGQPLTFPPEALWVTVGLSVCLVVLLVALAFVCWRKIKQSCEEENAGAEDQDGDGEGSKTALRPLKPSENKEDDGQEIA
# T4: Human full length B7-H3 (human, UniProt Q5ZPR3 29-534)
# T4 construct: On 3T12 fibroblasts expressing full length human B7-H3 or on NCI-H1650 cells; signal peptide residues 1-28 stated; also called huB7-H3; CD276
# T4 sequence: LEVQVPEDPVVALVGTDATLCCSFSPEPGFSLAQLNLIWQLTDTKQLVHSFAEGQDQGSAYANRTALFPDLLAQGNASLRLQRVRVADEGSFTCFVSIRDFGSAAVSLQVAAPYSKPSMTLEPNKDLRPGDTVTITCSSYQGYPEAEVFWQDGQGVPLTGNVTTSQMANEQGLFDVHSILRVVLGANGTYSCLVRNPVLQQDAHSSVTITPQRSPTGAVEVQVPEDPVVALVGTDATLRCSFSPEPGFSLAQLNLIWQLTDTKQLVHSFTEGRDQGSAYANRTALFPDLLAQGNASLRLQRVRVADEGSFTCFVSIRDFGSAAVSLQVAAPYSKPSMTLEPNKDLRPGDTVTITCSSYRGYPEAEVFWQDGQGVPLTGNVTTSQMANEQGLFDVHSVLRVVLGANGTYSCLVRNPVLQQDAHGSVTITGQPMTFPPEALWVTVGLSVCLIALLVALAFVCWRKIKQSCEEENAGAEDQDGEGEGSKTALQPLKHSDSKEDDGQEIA
# Tests used:
# Cyno B7-H3-ECD (his tag) = target: T1, Cyno B7-H3-ECD (his tag); experiment: SPR, mAb captured, ECD analyte
# [1] = target: T2, Human B7-H3-ECD (His tag); experiment: SPR, mAb captured, ECD analyte
# Mouse B7-H3 on cells = target: T3, Mouse B7-H3 on cells; experiment: FACS, 3T12 transfectants
# Description: (§1) A selection of hits were subcloned using the MoFlo (Beckman, Indianapolis, Ind., US) by depositing a single cell per well into 96 well cell culture plates to ensure clonality of the cell line. Resulting colonies were screened for specificity by FACS using mouse 3T12 fibroblast cell lines expressing the human B7-H3, cynomolgous B7-H3 or mouse B7-H3. Isotype of each monoclonal antibody was determined using the Mouse Monoclonal Isostyping Kit (Roche, No. 11-493-027-001, Indianapolis, Ind., USA).
# Human full length B7-H3 = target: T4, Human full length B7-H3; experiment: FACS, 3T12 transfectants
# Description: as §1
# [2] = target: T5, Cynomolgous B7-H3 on cells (cynomolgus); experiment: FACS, 3T12 transfectants
# T5 construct: whole, on cells; also called cyB7-H3; cyno B7-H3
# Description: as §1
Kd (Cyno B7-H3-ECD (his tag)) [nM],koff (Cyno B7-H3-ECD (his tag)) [s⁻¹],kon (Cyno B7-H3-ECD (his tag)) [M⁻¹ s⁻¹],Kd [1] [nM],koff [1] [s⁻¹],kon [1] [M⁻¹ s⁻¹],EC50 (Mouse B7-H3 on cells) [nM],EC50 (Human full length B7-H3) [nM],EC50 [2] [nM],binding result (Mouse B7-H3 on cells),Binder
2.6,7.2e-05,27000,45,0.00089,20000,569,23.4,2.03,,"Ab11 (antibody, mouse IgG1, V domains shown, mouse IgG1/k) VH: EVKLVESGGGLVQPGGSLRLSCATSGFTFTNYYMSWVRQPPGKALEWLGFIRNKANDYTTEYSASVKGRFTISRDNSQSILYLQMNTLRAEDSATYYCARESPGNPFAYWGQGTLVTVSA VL: DIVMTQSPSSLTVTAGEKVTMTCKSSQSLLNSGTQKNFLTWYQQKPGQPPKLLIYWASTRESGVPDRFTGSGSGTDFTLTISSVQAEDLAVYFCQNDYIYPLTFGAGTKLELK"
50,0.011,230000,24,0.0029,120000,1,1.7,1.5,,"Ab2 (antibody, mouse IgG1, V domains shown, mouse IgG1/k) VH: QVQLQQPGAELVKPGASVKLSCKASGYTFTSYWMHWVKQRPGQGLEWIGMIHPDSGTTNYNEKFRSKATLTVDKSSSTAYMQLSSLTSEDSAVYYCAVYYGSTYWYFDVWGTGTTVTVSS VL: DVVMTQTPLSLPVSLGDQAYISCRSSQSLVHINGNTYLHWYRQKPGQSPKLLIYKVSNRFSGVPDRFSGSGSGTDFTLKISRVEAEDLGVYFCSQSTHFPFTFGSGTKLEIK"
7.5,0.0056,750000,24,0.0032,140000,319,3.94,4.28,,"Ab16 (antibody, mouse IgG1, V domains shown, mouse IgG1/k) VH: EVKLLESGGGLVQPGGSLKLSCAASGFDFSRYWMSWVRQAPGKGLEWIGEINPDSSTINYTPSLKDKFIISRDNAKNTLYLQMSKVRSEDTALYYCARPGFGNYIYAMDYWGQGTSVTVSS VL: DIQMTQTTSSLSASLGDRVTINCRASQDISNFLNWYQQKPDGTVKLLIYYTSRLYLGVPSRFSGSGSGTDYSLTISNLEQEDIATYFCQQGNTLPPTFGGGTKLEIK"
410,0.012,28000,840,0.01,12000,,1.59,1.53,no binding,"Ab6 (antibody, mouse IgG1, V domains shown, mouse IgG1/k) VH: QVQLQQSGAELMKPGASVKISCKATGYTFSRYWIEWVKQRPGHGLEWIGEILPGSGSTNYNEKFKGKATFTADTSSNTAYMQVSSLTSEDSAVHYCARRGYGYVPYALDYWGQGTSVTVSS VL: EIQMTQTTSSLSASLGDRVTISCRASQDISNSLNWYQQKPDGTVNLLIYYTSRLYSGVPSRFSGSGSGTDYSLTISNLEQEDIATYFCQQGNTLPYTFGGGTKLEIK"

# Further lines, the binder ahead of its results:
Binder,Kd (Cyno B7-H3-ECD (his tag)) [nM],koff (Cyno B7-H3-ECD (his tag)) [s⁻¹],kon (Cyno B7-H3-ECD (his tag)) [M⁻¹ s⁻¹],Kd [1] [nM],koff [1] [s⁻¹],kon [1] [M⁻¹ s⁻¹],EC50 (Mouse B7-H3 on cells) [nM],EC50 (Human full length B7-H3) [nM],EC50 [2] [nM],binding result (Mouse B7-H3 on cells)
"Ab3 (antibody, mouse IgG1, V domains shown, mouse IgG1/k) VH: QVQLQQPGAELVKPGASVKLSCKASGYTFSSYWMHWVKQRPGQGLEWIGLIHPDSGSTNYNEMFKNKATLTVDRSSSTAYVQLSSLTSEDSAVYFCAGGGRLYFDYWGQGTTLTVSS VL: DVVMTQTPLSLPVSLGDQASISCRSSQSLVHSNGDTYLRWYLQKPGQSPKLLIYKVSNRFSGVPDRFSGSGSGTDFTLKITRVEAEDLGVYFCSQSTHVPYTFGGGTKLEIK",26,0.01,380000,19,0.01,520000,0.94,1.66,1.42,
"Ab13 (antibody, mouse IgG1, V domains shown, mouse IgG1/k) VH: DVQLQESGPDLVKPSQSLSLTCTVTGYSITSGYSWHWIRQFPGNKLEWMGYIHSSGSTNYNPSLKSRISINRDTSKNQFFLQLNSVTTEDTATYYCAGYDDYFEYWGQGTTLTVSS VL: DIVMTQSQKFMSTSVGDRVSVTCKASQNVGFNVAWYQQKPGQSPKALIYSASYRYSGVPDRFTGSGSGTDFTLTISNVQSEDLAEYFCQQYNSYPFTFGSGTKLEIK",8.4,0.0037,440000,17,0.0058,330000,25.8,1.94,4.12,
"Ab17 (antibody, mouse IgG2b, V domains shown, mouse IgG2b/k) VH: EVKLVESGGGLVQPGGSLKLSCAASGFTFSSYIMSWVRQTPEKRLEWVASIVSSNITYYPDSMKGRFTISRDNARNILYLQMSSLKSEDTAMYYCARSGTRAWFAYWGQGTLVTVSA VL: DIVLTQSPASLAVSLGQRATISCRASKSVSTSAYSYMHWYQQKPGQPPKLLIYLASNLESGVPARFSGSGSGTDFTLNIHPVEEEDAATYYCQHSRELPYTFGGGTKLEIK",≤ 0.019,≤ 1e-05,510000,0.034,1.9e-05,540000,2.39,2.75,2.6,
"Ab14 (antibody, mouse IgG1, V domains shown, mouse IgG1/k) VH: EVKLVESGGGLVKPGGSLKLSCAASGFTFSSYGMSWVRQTPEKRLEWVATISGGGTNTYYPDSVEGRFTISRDNAKNFLYLQMSSLRSEDTALYYCARHYGSQTMDYWGQGTSVTVSS VL: DIQMTQSPASLSASVGETVTITCRTSGNIHNYLTWYQQKQGKSPQLLVYNAKTLADGVPSRFSGSGSGTQFSLKINSLQPEDFGSYYCQHFWSIMWTFGGGTKLEIK",4.3,0.003,690000,13,0.0014,110000,102,3.03,2.97,
"Ab5 (antibody, mouse IgG1, V domains shown, mouse IgG1/k) VH: QVQLQQPGDELVKPGASVKLSCKTSGYTFTTDWMHWVKQRPGQGLEWIGMIHPNSGTTNYNEKFKSKAALTVDKSSSTACMQLSSLTSEDSAVYYCARSYWKWYFDVWGTGTTVTVSS VL: QIVLTQSPAIMSASLGEEITLTCSASSSVSYMHWYQQKSGTSPKLLIYSTSNLASGVPSRFSGSGSGTFYSLTISSVEAEDSADYYCHQWTSYMYTFGGGTKLEIK",200,0.28,1.4e+06,9.2,0.012,1.3e+06,6.01,2.71,1.91,
